Source: patent US20200109188A1 (AstraZeneca / MedImmune, published 2020)

Tests used:
Assay in all cases: cell-based or functional assay
[1] = biological target: HA of A/Wyoming/03/03 (H3N2) virus (influenza A virus)
[2] = biological target: HA of A/New Jersey/8/76 (H1N1) virus (influenza A virus)
[3] = biological target: HA of ca A/Panama/2007/99 (H3N2) virus (influenza A virus)
[4] = biological target: HA of ca A/Hong Kong/213/03 (H5N1) virus (influenza A virus)
[5] = biological target: HA of ca A/chicken/Hong Kong/G9/97 (H9N2) virus (influenza A virus)
[6] = biological target: HA of A/Wisconsin/67/05 (H3N2) virus (influenza A virus)
[7] = biological target: HA of ca A/Vietnam/1203/04 (H5N1) virus (influenza A virus)
[8] = biological target: HA of A/Victoria/3/75 (H3N2) virus (influenza A virus, UniProt P03435 17-567)
Chain of HA of A/Victoria/3/75 (H3N2) virus (P03435 17-567 limits assumed): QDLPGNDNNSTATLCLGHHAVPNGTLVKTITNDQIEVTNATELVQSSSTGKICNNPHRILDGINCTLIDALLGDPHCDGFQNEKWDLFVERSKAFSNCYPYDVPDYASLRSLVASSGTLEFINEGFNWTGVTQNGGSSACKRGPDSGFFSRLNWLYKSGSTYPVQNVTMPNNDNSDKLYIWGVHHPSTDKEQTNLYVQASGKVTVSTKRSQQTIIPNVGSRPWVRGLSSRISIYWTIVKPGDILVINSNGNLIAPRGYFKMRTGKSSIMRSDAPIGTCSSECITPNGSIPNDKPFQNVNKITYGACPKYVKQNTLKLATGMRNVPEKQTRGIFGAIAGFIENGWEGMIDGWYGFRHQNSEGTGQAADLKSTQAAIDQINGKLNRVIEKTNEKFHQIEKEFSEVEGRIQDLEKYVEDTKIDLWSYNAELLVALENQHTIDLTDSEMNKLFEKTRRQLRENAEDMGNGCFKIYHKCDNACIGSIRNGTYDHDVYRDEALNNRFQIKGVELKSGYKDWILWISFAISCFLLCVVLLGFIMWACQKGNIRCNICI

[9] = biological target: HA of A/Fort Monmouth/1/47 (H1N1) virus (influenza A virus)
[10] = biological target: HA of ca A/Perth/16/09 (H3N2) virus (influenza A virus)
[11] = biological target: HA of ca A/Beijing/262/95 (H1N1) virus (influenza A virus)
[12] = biological target: HA of H3-LA87 (A/Los Angeles/7/09 (H3N2)) virus (influenza A virus)
[13] = biological target: HA of ca A/Texas/36/91 (H1N1) virus (influenza A virus)
[14] = biological target: HA of ca A/New Caledonia/20/99 (H1N1) virus (influenza A virus)
[15] = biological target: HA of A/Kawasaki/9/86 (H1N1) virus (influenza A virus)
[16] = biological target: HA of ca A/Brit. Columbia/CN-6/04 (H7N3-LP) virus (influenza A virus)
[17] = biological target: HA of ca A/teal/Hong Kong/W312/97 (H6N1) virus (influenza A virus)
[18] = biological target: HA of ca A/swine/Missouri/06 (H2N3) virus (influenza A virus)
[19] = biological target: HA of ca A/Netherlands/219/03 (H7N7) virus (influenza A virus)
[20] = biological target: HA of A/Hong Kong/8/68 (H3N2) virus (influenza A virus)
[21] = biological target: HA of ca A/Sydney/5/97 (H3N2) virus (influenza A virus)

Row | Binder | Neutralization IC50, H3-Wy03 [1] | Neutralization IC50, H1-NJ76 [2] | Neutralization IC50, H3-Pa99 [3] | Neutralization IC50, H5-HK03 [4] | Neutralization IC50, H9-HK97 [5] | Neutralization IC50, H3-Wl05 [6] | Neutralization IC50, H5-VM04 [7] | Neutralization IC50, H3-Vic75 [8] | Neutralization IC50, H1-FM47 [9] | Neutralization IC50, H3-Perth09 [10] | Neutralization IC50, H1-BJ95 [11] | Neutralization IC50, H3-LA87 [12] | Neutralization IC50, H1-TX91 [13] | Neutralization IC50, H1-Ncal99 [14] | Neutralization IC50, H1-Kaw86 [15] | Neutralization IC50, H7-BC04 [16] | Neutralization IC50, H6-HK97 [17] | Neutralization IC50, H2-MO06 [18] | Neutralization IC50, H7-NLD03 [19] | Neutralization IC50, H3-HK68 [20] | further results
1 | Antibody 10 (antibody, V domains shown) VH: QVQLQQSGPGLVKPSQTLSLTCAISGDSVSSNSATWNWIRQSPSRGLEWLGRTYYRSKWYNDYADFLKRRITINPDTSNNEVSLRLTSVTPDDTALYYCARGGHITVFGVNIDAFDVWGQGTMVTVSS VL: DIQMTQSPSSLSASVGDRITISCRTSQSLRSYLHWYQQKPGKAPKLLIYASSTLQSGVPSRFSGSGSGTDFTLTISNLQPEDFATYYCQLSRTFGQGTKVEIK | 1.52 µg/mL | 0.15 µg/mL | 18.7 µg/mL | 1.6 µg/mL | 1.76 µg/mL | 4.46 µg/mL | 2.21 µg/mL | 0.91 µg/mL | 1.11 µg/mL | 2.56 µg/mL | 4.46 µg/mL | 4.59 µg/mL | 0.48 µg/mL | 1.26 µg/mL | 1.62 µg/mL | 3.59 µg/mL | 1.05 µg/mL | 1.04 µg/mL | 3.8 µg/mL | 0.85 µg/mL | Neutralization IC50, H3-Syd97 [21]: 9.29 µg/mL
2 | Antibody 5 (antibody, V domains shown) VH: QVQLQQSGPGLVKPSQTLSLTCAISGDRVSSNSAVWNWIRQSPSRGLEWLGRTYYRSKWYYDYAESVKSRIVIDPDTSKNQVSLQLNSVTPEDSAIYYCARGGHITVFGLNIDAYDIWGQGAMVTVSS VL: DIQMTQSPSSLSASVGDRVTISCRAQSLSSYLHWYQQKPGQPPKLLIYAATTLQSGVPSRFSGSGSGTDFTLTISTFQAEDVATYYCQQSRTFGQGTKVEIK | 0.77 µg/mL | 1.64 µg/mL | 16.7 µg/mL | 1.18 µg/mL | 2.43 µg/mL | 2.83 µg/mL | 2.6 µg/mL | 0.57 µg/mL | 0.86 µg/mL | 2.22 µg/mL | 5.06 µg/mL | 3.54 µg/mL | 0.76 µg/mL | 0.85 µg/mL | 1.01 µg/mL | 5.35 µg/mL | 2.27 µg/mL | 2.38 µg/mL | 4.14 µg/mL | 0.39 µg/mL | Neutralization IC50, H3-Syd97 [21]: 3.03 µg/mL
3 | Antibody 6 (antibody, V domains shown) VH: QVQLQQSGPGLVKPSQTLSLTCAISGDRVSSNSAVWNWIRQSPSRGLEWLGRTYYRSKWYYDYAESVKSRIVIDPDTSKNQVSLQLNSVTPEDSAIYYCARGGHITEFGLNIDAYDIWGQGAMVTVSS VL: DIQMTQSPSSLSASVGDRVTISCRAQSLSSYLHWYQQKPGQPPKLLIYAATTLQSGVPSRFSGSGSGTDFTLTISTFQAEDVATYYCQQSRTFGQGTKVEIK | 4.7 µg/mL | 2.6 µg/mL | 25.8 µg/mL | 10.4 µg/mL | 16.5 µg/mL | 6.76 µg/mL | 8.87 µg/mL | 1.09 µg/mL | 3.04 µg/mL | 5.03 µg/mL | 20.9 µg/mL | 12.6 µg/mL | 2.2 µg/mL | 3 µg/mL | 3.51 µg/mL | > 50 µg/mL | 3.23 µg/mL | 2.9 µg/mL | > 50 µg/mL | 2.04 µg/mL | Neutralization IC50, H3-Syd97 [21]: 6.54 µg/mL
4 | Antibody 8 (antibody, V domains shown) VH: QVQLQQSGPGLVKPSQTLSLTCVISGDTVSSNRATWNWMRQSPLRGLEWLGRTYYRSKWYNDYAVSVKSRVVINPDTSKNQVSLQLNTVTPDDSGVYFCARGGHITVFGVNIDAFDIWGLGTKVTVSS VL: DIQMTQSPSSLSASVGDRVTISCRASQRLNSYLHWYQQTPGQAPKLLIYATSTLQSGVSPRFSGSGSGTDFTLTISSLQPEDVATYYCQLSRTFGHGTKVEIK | > 50 µg/mL | 2.26 µg/mL | > 50 µg/mL | 1.82 µg/mL | 26.4 µg/mL | > 50 µg/mL | 3.9 µg/mL | 3.83 µg/mL | 1.37 µg/mL | > 50 µg/mL | 10.6 µg/mL | > 50 µg/mL | 0.7 µg/mL | 2.06 µg/mL | 2.11 µg/mL | 14.7 µg/mL | 2.97 µg/mL | 2.62 µg/mL | 12.8 µg/mL | 2.82 µg/mL | Neutralization IC50, H3-Syd97 [21]: > 50 µg/mL
